# Measured values from US6699842B1, “Dominant negative deletion mutants of C-jun and their use in the prevention and treatment of cancer” (The United States of America as represented by the …, priority 1994, dated 2004).
# Legend:
# c-Jun = assay: immunoprecipitation and densitometry of c-Jun protein in stable JB6 transfectants; assay type: cell-based, mouse; settings: 10 ng/ml, fifteen hours, TAM67 or Neo-only transfectants
# Experimental: Three TAM67 clonal transfectants (M4, M3, M6) and one neo-only clonal transfectant (N1) were treated for fifteen hours with either 10 ng/ml TPA (T), 10 ng/ml EGF (E), or 0.1% DMSO (D) prior to metabolic labelling for two hours with 0.2 mCi/ml ^35S -methionine (Amersham, Rockford, Ill.) (Sun, Y. et al. (1993) Mol. Carcinogenesis, 8: 49-57). Cellular lysates were then collected and immunoprecipitations using polyclonal rabbit c-jun antibody (AB-1 antibody, Oncogene Science) were carried out overnite at 4° C. (Sun et al. (1993)). These immunoprecipitates were then analyzed by electrophoresis on 12.5% SDS polyacrylamide gels and these gels are shown in FIG. 4.
# AP-1 = assay: CAT assay with stromelysin promoter reporter P750TRCAT (AP-1 dependent) in JB6 P+ Cl 41 cells; assay type: cell-based, mouse; settings: 10 ng/ml, eight hours
# Excerpt: The plasmid constructs used in the following examples were as follows: P750TRCAT is a CAT reporter construct containing 750 bp of the rat stromelysin promoter driving the heterogolous gene chloramphenicol acetyl-transferase (CAT). This construct contains an AP-1 binding sequence at position −70 (Matrisian, L. M. et al. (1991) Am. J. Medic. Sci., 302: 157-162, Kerr, L. D. et al. (1988) Science., 242: 1424-1427, McDonnell, S. E. et al. (1990) Mol. Cell. Biol. 105 4284-4293). The mTRE-CAT reporter is a site-directed mutant with 2 point mutations in the AP-1 site (Matrisian, L. M. et al. (1991) Am. J. Medic. Sci., 302: 157-162) and the mPEA3-CAT reporter is a site-directed mutant in which point mutations in each of the PEA3 sites at position −208 to −200 and −191 to −199 of the stromelysin promoter were introduced using a protocol provided with the site-directed mutagenesis kit of Amersham Corp. (Arlington Heights, Ill.) and an oligonucleotide having SEQ ID NO.:1 GCAAGAAGCATTTCTTGG.
# In brief, JB6 Cl 41 (P^+) cells transfected for 4-5 hours using a standard calcium phosphate transfection procedure (Sambrook, J. et al. (1989) “Molecular Cloning, A Laboratory Manual” Cold Spring Harbor Laboratory Press, Cold Spring Harbor, N.Y.) with 10 μg of one of three CAT reporter plasmid DNAs, P750TRCAT, mTRE-CAT or mPEA3-CAT and 10 μg of sheared genomic DNA isolated from Cl 41 cells were then changed to medium containing 2% fetal calf serum and twenty-four to forty-two hours later, were treated with either 0.1% of DMSO, 10 ng/ml of TPA or 10 ng/ml EGF for eight hours prior to preparation of total cell extracts. CAT enzyme activity was assayed using a diffusion-based CAT assay according to the protocol provided by the manufacturers (New England Nuclear, Del.). The results are expressed as the rate of accumulation of [^14C]-acetylated product relative to solvent controls (DMSO).
# In order to determine whether TPA-induced CAT activity in JB6 P^+ cells is capable of being abolished, TPA induced CAT activity was measured in the presence of the known AP-1 inhibitors retinoic acid (RA) and fluocinolone acetonide (FA). In brief, JB6 P^+ Cl 41 cells were transfected with 10 μg of P750TRCAT and 10 μg of sheared genomic DNA from Cl 41 cells as in Example 1. […] As before, the results are expressed as the rate of accumulation of ^14C-acetylated product relative to solvent controls. […]
molecule,measurement,setting,value
"epidermal growth factor (protein, UniProt P01133 23-1207, looked up, Pro-epidermal growth factor, tumor promoter, peptide growth factor) Pro-epidermal growth factor: PQHWSCPEGTLAGNGNSTCVGPAPFLIFSHGNSIFRIDTEGTNYEQLVVDAGVSVIMDFHYNEKRIYWVDLERQLLQRVFLNGSRQERVCNIEKNVSGMAINWINEEVIWSNQQEGIITVTDMKGNNSHILLSALKYPANVAVDPVERFIFWSSEVAGSLYRADLDGVGVKALLETSEKITAVSLDVLDKRLFWIQYNREGSNSLICSCDYDGGSVHISKHPTQHNLFAMSLFGDRIFYSTWKMKTIWIANKHTGKDMVRINLHSSFVPLGELKVVHPLAQPKAEDDTWEPEQKLCKLRKGNCSSTVCGQDLQSHLCMCAEGYALSRDRKYCEDVNECAFWNHGCTLGCKNTPGSYYCTCPVGFVLLPDGKRCHQLVSCPRNVSECSHDCVLTSEGPLCFCPEGSVLERDGKTCSGCSSPDNGGCSQLCVPLSPVSWECDCFPGYDLQLDEKSCAASGPQPFLLFANSQDIRHMHFDGTDYGTLLSQQMGMVYALDHDPVENKIYFAHTALKWIERANMDGSQRERLIEEGVDVPEGLAVDWIGRRFYWTDRGKSLIGRSDLNGKRSKIITKENISQPRGIAVHPMAKRLFWTDTGINPRIESSSLQGLGRLVIASSDLIWPSGITIDFLTDKLYWCDAKQSVIEMANLDGSKRRRLTQNDVGHPFAVAVFEDYVWFSDWAMPSVMRVNKRTGKDRVRLQGSMLKPSSLVVVHPLAKPGADPCLYQNGGCEHICKKRLGTAWCSCREGFMKASDGKTCLALDGHQLLAGGEVDLKNQVTPLDILSKTRVSEDNITESQHMLVAEIMVSDQDDCAPVGCSMYARCISEGEDATCQCLKGFAGDGKLCSDIDECEMGVPVCPPASSKCINTEGGYVCRCSEGYQGDGIHCLDIDECQLGEHSCGENASCTNTEGGYTCMCAGRLSEPGLICPDSTPPPHLREDDHHYSVRNSDSECPLSHDGYCLHDGVCMYIEALDKYACNCVVGYIGERCQYRDLKWWELRHAGHGQQQKVIVVAVCVVVLVMLLLLSLWGAHYYRTQKLLSKNPKNPYEESSRDVRSRRPADTEDGMSSCPQPWFVVIKEHQDLKNGGQPVAGEDGQAADGSMQPTSWRQEPQLCGMGTEQGCWIPVSSDKGSCPQVMERSFHMPSYGTQTLEGGVEKPHSLLSANPLWQQRALDPPHQMELTQ","c-Jun protein levels (43 kDa band, densitometric analysis)",c-Jun,no significant differences
same,increase in AP-1 dependent CAT activity in neo-only transfectants,"AP-1; N1-N3 transfectants, P750TRCAT",three to four fold increases
same,"CAT activity relative to uninduced cells, P750TRCAT reporter",AP-1; P750TRCAT-transfected JB6 P+ Cl 41 cells,about 2 fold
same,"CAT activity relative to uninduced cells, mPEA3-CAT reporter",AP-1; mPEA3-CAT-transfected JB6 P+ Cl 41 cells (PEA3 sites mutated),about 2 fold
same,"inducibility of CAT activity, mTRE-CAT reporter",AP-1; mTRE-CAT-transfected cells (AP-1 binding site mutated),loss of inducibility
